Measurements published in US20250011363A1, “OPTIMIZED SHORTENED PEPTIDE THAT BINDS TO ACETYLCHOLINE RECEPTOR, AND USE THEREOF” (SKINMED CO., LTD., priority 2021, published 2025).

Target: acetylcholine receptor (Homo sapiens, UniProt P02708)
Test: SPR binding affinity (RU) of optimized 5mer/6mer/7mer peptides, Examples 6-7
Settings: 6mer-1 Top sequence; SPR; peptides tested at 10 μM
Summary of the method: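 Synthetic 5mer and 6mer peptides, built from frequent or infrequent amino-acid combinations, were tested at 10 μM for binding to the human acetylcholine receptor by surface plasmon resonance. Binding is reported in response units (RU).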

Chain of acetylcholine receptor (P02708 21-457): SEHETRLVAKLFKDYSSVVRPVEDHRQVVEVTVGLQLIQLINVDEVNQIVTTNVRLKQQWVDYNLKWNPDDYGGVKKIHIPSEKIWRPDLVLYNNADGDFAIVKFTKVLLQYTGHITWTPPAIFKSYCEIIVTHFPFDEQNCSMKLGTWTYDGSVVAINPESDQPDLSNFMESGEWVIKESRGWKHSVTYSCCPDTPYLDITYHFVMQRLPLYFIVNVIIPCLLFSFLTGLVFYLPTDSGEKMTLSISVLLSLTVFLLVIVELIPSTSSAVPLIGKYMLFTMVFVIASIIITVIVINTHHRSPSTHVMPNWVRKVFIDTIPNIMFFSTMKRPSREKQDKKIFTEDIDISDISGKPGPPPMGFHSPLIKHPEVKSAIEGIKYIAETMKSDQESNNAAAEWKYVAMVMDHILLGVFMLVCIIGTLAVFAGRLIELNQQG

Substance	Binding affinity [Ru]
6mer-1-235 (KKRYCR)	148
6mer-1-315 (RKQQTK)	128
6mer-1-383 (RKRRTK)	148
6mer-1-248 (RRLIYK)	151
6mer-1-372 (RKLRSK)	145
6mer-1-308 (KRRITR)	135
6mer-1-263 (RKSYTK)	146
6mer-1-230 (RKGYCK)	128

Same assay, conditions: 6mer-2 Top sequence; SPR; peptides tested at 10 μM

Substance	Binding affinity [Ru]
6mer-2-73 (RLYTKR)	139
6mer-2-154 (KRVTKR)	148
6mer-2-170 (RQYQKK)	128
6mer-2-129 (KSVLRK)	139

Same assay, conditions: SPR, Resonance Units; 5mer Bottom sequence (bottom combinations); peptides tested at 10 μM

Substance	Binding affinity [Ru]
5mer-610 (KCDDK)	16
5mer-1052 (RNDWR)	17
5mer-938 (RIEFK)	18
5mer-648 (KNKKR)	15
5mer-1066 (RFWVK)	25
5mer-739 (KDCPR)	16
5mer-1024 (KIDNK)	26
5mer-654 (KEWNR)	27
5mer-956 (KPTWK)	19
5mer-1021 (KITHK)	26
5mer-713 (KYPKK)	16
5mer-780 (RDSHK)	27
5mer-773 (RPNMR)	25
5mer-700 (RAWER)	17
5mer-916 (RCHER)	12
5mer-807 (RKNKK)	20
5mer-1085 (RTTER)	14
5mer-806 (RKMFR)	17
5mer-776 (RCDFR)	17
5mer-1097 (KPDIR)	28
5mer-909 (RINVK)	33
5mer-796 (KNWVR)	17
5mer-1059 (RMAGR)	29
5mer-1108 (RNPIR)	19
5mer-772 (KYWFK)	11

Same assay, conditions: SPR, Resonance Units; peptides tested at 10 μM; 6mer-1 Bottom sequence

Substance	Binding affinity [Ru]
6mer-1-1178 (RKKMAK)	29
6mer-1-999 (RKATNR)	24
6mer-1-1044 (KKHHIR)	24
6mer-1-1130 (RKATFR)	31
6mer-1-1149 (RKMTPK)	30
6mer-1-1172 (RRFNFR)	23

Same assay, conditions: SPR, Resonance Units; peptides tested at 10 μM; 6mer-1 Bottom sequence (Table 11)

Substance	Binding affinity [Ru]
6mer-1-770 (RKTNAR)	29
6mer-1-606 (RREWFR)	15
6mer-1-730 (KRATFR)	13
6mer-1-794 (RKYEPK)	11
6mer-1-756 (RKAKMK)	33
6mer-1-780 (KRKCWR)	24
6mer-1-707 (KRFWPK)	26
6mer-1-767 (KRTPDK)	18
6mer-1-640 (RRNCWR)	25

Same assay, conditions: SPR, Resonance Units; peptides tested at 10 μM; 6mer-2 Bottom sequence

Substance	Binding affinity [Ru]
6mer-2-914 (KDDIKK)	25
6mer-2-789 (KNENRK)	24
6mer-2-773 (KPDARR)	11
6mer-2-960 (RDCVKR)	29
6mer-2-917 (RFCWRK)	23
6mer-2-672 (KIDDRK)	20
6mer-2-944 (KPEDKK)	35
6mer-2-654 (RMPEKR)	20
6mer-2-978 (KEPHRR)	28

Same assay, conditions: SPR, Resonance Units; peptides tested at 10 μM; 6mer-2 Top sequence

Substance	Binding affinity [Ru]
6mer-2-525 (KWVRKK)	145
6mer-2-461 (KSVCRR)	149
6mer-2-592 (RWVLRK)	122
6mer-2-507 (RGICKR)	145
6mer-2-481 (RQRYKK)	131

Same assay, conditions: SPR, Resonance Units; peptides tested at 10 μM; 6mer-2 Top sequence (Table 12)

Substance	Binding affinity [Ru]
6mer-2-244 (RRFSKR)	139
6mer-2-252 (KVFRKK)	148
6mer-2-248 (RSYTRR)	154
6mer-2-327 (KGLRKR)	153
6mer-2-256 (KSQQKR)	142
6mer-2-210 (RSQSRR)	128
6mer-2-381 (KVYRRR)	139
6mer-2-320 (RQYRRK)	148
6mer-2-236 (KWQQKK)	131
6mer-2-391 (KQYQKR)	141
6mer-2-285 (RRIQRR)	142
6mer-2-333 (KRFRRK)	139
6mer-2-204 (RRVQKR)	142

Same assay, conditions: SPR, peptides at 10 μM; 6mer-2 Bottom sequence

Substance	Binding affinity [Ru]
6mer-2-1025 (RCSHRR)	39
6mer-2-1050 (KPPPRK)	26
6mer-2-1069 (KHDMKK)	36

Same assay, conditions: SPR, peptides tested at 10 μM; 5mer Top sequence

Substance	Binding affinity [Ru]
5mer-395 (RWVCK)	50
5mer-206 (KLQLR)	57
5mer-342 (KVYQR)	69
5mer-192 (KSFRK)	75
5mer-347 (KRICR)	78
5mer-7 (RQLTK)	54
5mer-472 (RRYRK)	55
5mer-82 (RQRYK)	84
5mer-452 (RGVSK)	82
5mer-32 (RQLSR)	75
5mer-484 (RSFQK)	51
5mer-172 (RSRRR)	82
5mer-11 (KQRLR)	84
5mer-430 (KWRTK)	80
5mer-405 (KSYTK)	68
5mer-432 (RQVRR)	52
5mer-187 (RWVCR)	74
5mer-121 (RQVTR)	73
5mer-330 (RWQLR)	86
5mer-9 (RGVQR)	77
5mer-194 (KWQSK)	84
5mer-365 (KRRYK)	52
5mer-116 (RWRSK)	64
5mer-104 (RVVLK)	74

Same assay, conditions: SPR, peptides tested at 10 μM; 5mer Top sequence (top combinations)

Substance	Binding affinity [Ru]
5mer-293 (RQYYR)	83
5mer-275 (KVYTR)	64
5mer-216 (KWVRR)	56
5mer-569 (RQQRK)	79
5mer-243 (KLLSK)	51
5mer-284 (KQVQR)	52
5mer-249 (RSYCR)	52
5mer-272 (KGYQR)	83

Same assay, conditions: SPR, peptides tested at 10 μM; 6mer-1 Bottom sequence (Table 11)

Substance	Binding affinity [Ru]
6mer-1-953 (KRTNGK)	26
6mer-1-977 (RRPCFR)	43
6mer-1-865 (KKMTAR)	21
6mer-1-853 (KRCNGR)	30
6mer-1-826 (KKAHMR)	31

Same assay, conditions: SPR, peptides tested at 10 μM; 6mer-1 Top sequence

Substance	Binding affinity [Ru]
6mer-1-575 (KRWVRR)	148
6mer-1-523 (KRRRSK)	139
6mer-1-596 (RKGVLR)	148
6mer-1-594 (KRQLQR)	121
6mer-1-418 (RRQVRK)	123
6mer-1-515 (RRGLSR)	139
6mer-1-429 (RRQRRK)	135
6mer-1-464 (RRQRLK)	131
6mer-1-440 (KRVYSK)	153

Same assay, conditions: SPR, peptides tested at 10 μM; 6mer-1 Top sequence (top combinations)

Substance	Binding affinity [Ru]
6mer-1-109 (KKRYLR)	148
6mer-1-119 (KRLQTR)	133
6mer-1-65 (KKSRRR)	121
6mer-1-75 (RRQYQK)	139
6mer-1-174 (KKGVCR)	154
6mer-1-30 (RRQVRR)	154
6mer-1-89 (RKQRCK)	142
6mer-1-155 (RRVRSR)	127
6mer-1-115 (RRSLSR)	133
6mer-1-127 (KRVIYR)	147

Same assay, conditions: SPR; XRRGVRR-7mer and RRGVRRX-7mer

Substance	Binding affinity, values relative to the RRGVRR sequence
3667 (RRGVRRI) [compound 3667]	138
3668 (RRGVRRM) [compound 3668]	127
3650 (FRRGVRR) [compound 3650]	139
3641 (GRRGVRR) [compound 3641]	137
3653 (YRRGVRR) [compound 3653]	145

Same assay, conditions: SPR; XRRQRR-6mer and RRQRRX-6mer

Substance	Binding affinity, relative value to the RRQRR sequence
3608 (MRRQRR) [compound 3608]	119

Same assay, conditions: SPR; peptides tested at 10 μM; 5mer Bottom sequence

Substance	Binding affinity [Ru]
5mer-870 (RCKVK)	25
5mer-856 (KPPDR)	23
5mer-836 (REWNR)	15
5mer-868 (KMHFK)	18
5mer-838 (RHSMK)	13
5mer-1179 (RMNVR)	18
